Among the data in paper PMC7840181 are stoichiometry N values, retold here.

This assay deals with CLAG3-tv2 (CLAG3h with C-terminal His10-FLAG-thrombin-TEV-HA-twinstrept-BC2 multi-tag) (Plasmodium falciparum). As to the kind of experiment: native MS; endogenous RhopH complex purified via CLAG3-tv2 (FLAG, then Ni-NTA), exchanged into 200 mM ammonium acetate pH 7.5, 0.01% Tween-20; Exactive Plus EMR.

As a reminder, the stoichiometry N is a count of units in the complex or per binding partner. For “RhopH2 (from UniProt C0H571 20-1378) (natural protein)”, the stoichiometry N came out at 1. Under “RhopH3 (from UniProt Q8I395 25-897) (natural protein)” stands 1.
